Assay results: PMC3306252 (Nature, 2012)
Values belong to the molecule of their own block, whether it stands above or below them.

Legend:
[1] = target: Srs2(1137-1174) (S. cerevisiae) (UniProt P12954); assay: fluorescence polarisation
[2] = target: BODIPY-FL Srs2(1107-1174) (S. cerevisiae) (UniProt P12954); assay: fluorescence polarisation
Srs2(1107-1174) F1153A = target: T1, Srs2(1107-1174) F1153A (S. cerevisiae, UniProt P12954 1107-1174, F1153A, BODIPY-FL conjugated (FP was done with BODIPY-FL conjugated Srs2)); assay: fluorescence polarisation
T1 sequence: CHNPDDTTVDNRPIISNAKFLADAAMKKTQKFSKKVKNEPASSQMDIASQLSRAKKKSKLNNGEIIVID

Srs2(1107-1174) I1152A = target: T2, Srs2(1107-1174) I1152A (S. cerevisiae, UniProt P12954 1107-1174, I1152A, BODIPY-FL conjugated (FP was done with BODIPY-FL conjugated Srs2)); assay: fluorescence polarisation
T2 sequence: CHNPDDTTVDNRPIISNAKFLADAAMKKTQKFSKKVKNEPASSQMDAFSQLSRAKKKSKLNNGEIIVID

Srs2(1107-1174) Q1155E = target: T3, Srs2(1107-1174) Q1155E (S. cerevisiae, UniProt P12954 1107-1174, Q1155E, BODIPY-FL conjugated (FP was done with BODIPY-FL conjugated Srs2)); assay: fluorescence polarisation
T3 sequence: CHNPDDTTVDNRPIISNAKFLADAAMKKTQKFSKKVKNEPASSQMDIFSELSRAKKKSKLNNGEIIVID

Srs2(1107-1174) D1151A = target: T4, Srs2(1107-1174) D1151A (S. cerevisiae, UniProt P12954 1107-1174, D1151A, BODIPY-FL conjugated (FP was done with BODIPY-FL conjugated Srs2)); assay: fluorescence polarisation
T4 sequence: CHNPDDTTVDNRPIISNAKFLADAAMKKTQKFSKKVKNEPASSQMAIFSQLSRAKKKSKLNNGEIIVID

Srs2(1107-1174) L1156A = target: T5, Srs2(1107-1174) L1156A (S. cerevisiae, UniProt P12954 1107-1174, L1156A, BODIPY-FL conjugated (FP was done with BODIPY-FL conjugated Srs2)); assay: fluorescence polarisation
T5 sequence: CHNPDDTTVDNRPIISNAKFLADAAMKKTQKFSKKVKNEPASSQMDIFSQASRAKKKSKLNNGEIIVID

Srs2(1107-1174) Q1149E = target: T6, Srs2(1107-1174) Q1149E (S. cerevisiae, UniProt P12954 1107-1174, Q1149E, BODIPY-FL conjugated (FP was done with BODIPY-FL conjugated Srs2)); assay: fluorescence polarisation
T6 sequence: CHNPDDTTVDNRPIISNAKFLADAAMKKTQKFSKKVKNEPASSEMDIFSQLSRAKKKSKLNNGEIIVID

crystal structure [3] = target: the molecule itself; assay: crystal structure
His6-Eco1 = target: T7, His6-Eco1 (S. cerevisiae, UniProt P43605 1-281); assay: pull-down
T7 sequence (looked up): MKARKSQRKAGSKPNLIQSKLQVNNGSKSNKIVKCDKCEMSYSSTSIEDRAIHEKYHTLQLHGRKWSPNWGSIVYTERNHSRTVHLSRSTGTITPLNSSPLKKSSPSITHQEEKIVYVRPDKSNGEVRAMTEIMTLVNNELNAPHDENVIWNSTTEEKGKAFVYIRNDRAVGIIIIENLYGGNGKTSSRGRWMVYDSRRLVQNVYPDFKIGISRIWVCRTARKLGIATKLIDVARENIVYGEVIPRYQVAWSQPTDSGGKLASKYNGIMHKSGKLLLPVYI

crystal structure [4] = target: the molecule itself; assay: crystal structure; remark: listed apart in the source

fold tighter than Srs2(1107-1174) [1]: 8 fold | Kd [2]: 26.3 nM
Molecule: SUMO_K164-PCNA^tri K127G (from UniProt P15873 1-258; Q12306 19-98) (complex)

fold weaker than Srs2(1107-1174) [1]: 4 fold | Kd [2]: 877 nM
Molecule: GST-SUMO (from UniProt Q12306 1-101) (natural protein)

Kd [2]: 25.1 nM
Molecule: SUMO_K127-PCNA^tri (PCNA K164R) (from UniProt P15873 1-258; Q12306 19-98) (complex)

Kd [2]: 79 nM
Molecule: SUMO_K164-PCNA^mono K127G (from UniProt P15873 1-258; Q12306 19-98) (complex)

fold weaker than Srs2(1107-1174) [1]: 3 fold | Kd [2]: 169 nM
Molecule: PCNA (yeast proliferating cell nuclear antigen, trimer; variant not named) (from UniProt P15873 1-258) (natural protein)

fold worse than PCNA^tri [2]: 6.5 fold
Molecule: PCNA^mono (N-ethylmaleimide-treated PCNA) (from UniProt P15873 1-258) (natural protein)

Kd [2]: 14 nM
Molecule: SUMO_K127-PCNA^mono (PCNA K164R) (from UniProt P15873 1-258; Q12306 19-98) (complex)

fold reduced affinity against wild-type Srs2(1107-1174) (Srs2(1107-1174) F1153A): 9 fold | fold defect in Kd against wild-type Srs2(1107-1174) (Srs2(1107-1174) I1152A): 60 fold | fold reduced affinity against wild-type Srs2(1107-1174) (Srs2(1107-1174) Q1155E): 31 fold | fold defect in Kd against wild-type Srs2(1107-1174) (Srs2(1107-1174) D1151A): 10 fold | fold reduced affinity against wild-type Srs2(1107-1174) (Srs2(1107-1174) L1156A): 73 fold | fold defect in Kd against wild-type Srs2(1107-1174) (Srs2(1107-1174) Q1149E): 3 fold
B1: PCNA^tri K127G (natural protein, budding yeast)
chain: MLEAKFEEASLFKRIIDGFKDCVQLVNFQCKEDGIIAQAVDDSRVLLVSLEIGVEAFQEYRCDHPVTLGMDLTSLSKILRCGNNTDTLTLIADNTPDSIILLFEDTKKDRIAEYSLKLMDIDADFLGIEELQYDSTLSLPSSEFSKIVRDLSQLSDSINIMITKETIKFVADGDIGSGSVIIKPFVDMEHPETSIKLEMDQPVDLTFGAKYLLDIIKGSSLSDRVGIRLSSEAPALFQFDLKSGFLQFFLAPKFNDEE
stoichiometry N (crystal structure [3]): 3

binding result (His6-Eco1): binds
B2: PCNA FLKI(125-128)AAAA (natural protein, budding yeast)
chain: MLEAKFEEASLFKRIIDGFKDCVQLVNFQCKEDGIIAQAVDDSRVLLVSLEIGVEAFQEYRCDHPVTLGMDLTSLSKILRCGNNTDTLTLIADNTPDSIILLFEDTKKDRIAEYSLKLMDIDADAAAAEELQYDSTLSLPSSEFSKIVRDLSQLSDSINIMITKETIKFVADGDIGSGSVIIKPFVDMEHPETSIKLEMDQPVDLTFGAKYLLDIIKGSSLSDRVGIRLSSEAPALFQFDLKSGFLQFFLAPKFNDEE

B3: PCNA K127G, NEM-modified (the PCNA part of SUMO_K164-PCNA^mono) (natural protein, budding yeast)
chain: MLEAKFEEASLFKRIIDGFKDCVQLVNFQCKEDGIIAQAVDDSRVLLVSLEIGVEAFQEYRCDHPVTLGMDLTSLSKILRCGNNTDTLTLIADNTPDSIILLFEDTKKDRIAEYSLKLMDIDADFLGIEELQYDSTLSLPSSEFSKIVRDLSQLSDSINIMITKETIKFVADGDIGSGSVIIKPFVDMEHPETSIKLEMDQPVDLTFGAKYLLDIIKGSSLSDRVGIRLSSEAPALFQFDLKSGFLQFFLAPKFNDEE
modifications: N-ethylmaleimide on C22 and C81; K164 conjugated to SUMO G98
binding result (crystal structure [4]): binds
